B1: HK-Q11 β-sheet fibrillizing peptide (nanofibers) (peptide)
peptide: QQKFQFQFHQQ
notes: Synthetic peptide assembled into nanofibers
B2: Tryptophan-terminated βTail (peptide)
peptide: WGSGSMALKVELEKLKSELVVLHSELHKLKSEL
notes: Synthetic peptide; also called W-βTail; W-βT
B3: βTail peptide (peptide)
peptide: MALKVELEKLKSELVVLHSELHKLKSEL
B4: Q11 β-sheet fibrillizing peptide (assembled as Q11 nanofibers, gels or microgels) (peptide)
peptide: QQKFQFQFEQQ
notes: Synthetic peptide; stands in the assays as a supramolecular nanofiber of many copies; also called Q11 gels; Q11 microgels

Series [1] concerns the molecule itself. Description: TEM and thioflavin T fluorescence.
For series [2], the target named is B4. Description: loss of tryptophan fluorescence from the supernatant.
Series [3] concerns the molecule itself. Description: circular dichroism (FIGS. 1B-C).
In series [4] the target is B4. Description: circular dichroism.
Series [5] deals with gold-labeled streptavidin (streptavidin-5 nm gold particles, Invitrogen cat. # A32360) (UniProt P22629 37-163, limits assumed, bound to 5 nm gold particles). The experiment in a line: gold TEM.
The target of series [6] is T1, βTail-cutinase (fusion of βTail and the fungal enzyme cutinase).
T1 construct: also called βT-cut
Description: loss of protein from the supernatant (µBCA).

Chain of gold-labeled streptavidin (streptavidin-5 nm gold particles, Invitrogen cat. # A32360) (P22629 37-163 limits assumed, one chain of several): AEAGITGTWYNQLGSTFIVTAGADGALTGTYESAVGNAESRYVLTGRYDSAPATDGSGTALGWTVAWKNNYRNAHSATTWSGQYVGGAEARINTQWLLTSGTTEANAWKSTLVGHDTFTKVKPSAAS

As for B1, in series [1], the binding result is reported as “binds”. B2: the binding result in series [2] is given as “binds”. For the molecule B3, the binding result in series [3] and in series [4] was “binds” throughout. As to B4, the binding result was “no binding” in series [5], “binds” in series [6] and “binds” in series [3].

Source of the values: patent publication US20160074488A1 (UNIVERSITY OF CHICAGO, published 2016).
